Biological target: T1, glutathione S-transferase (GST)-tagged Kid recombinant protein (human, UniProt Q14807 1-665)
T1 construct: cDNA amplified from a cDNA library extracted from HEK 293T cells, inserted into pGEX-4T-1; Vector pGEX-4T-1; The discussion calls the Kid of the gliding assay (Kid-GFP-His, another construct) full-length; nothing is said of the limits of GST-Kid; also called GST-Kid; source: E. coli BL21 (DE3) pLysS, purified (glutathione-Sepharose 4B)
T1 sequence (looked up): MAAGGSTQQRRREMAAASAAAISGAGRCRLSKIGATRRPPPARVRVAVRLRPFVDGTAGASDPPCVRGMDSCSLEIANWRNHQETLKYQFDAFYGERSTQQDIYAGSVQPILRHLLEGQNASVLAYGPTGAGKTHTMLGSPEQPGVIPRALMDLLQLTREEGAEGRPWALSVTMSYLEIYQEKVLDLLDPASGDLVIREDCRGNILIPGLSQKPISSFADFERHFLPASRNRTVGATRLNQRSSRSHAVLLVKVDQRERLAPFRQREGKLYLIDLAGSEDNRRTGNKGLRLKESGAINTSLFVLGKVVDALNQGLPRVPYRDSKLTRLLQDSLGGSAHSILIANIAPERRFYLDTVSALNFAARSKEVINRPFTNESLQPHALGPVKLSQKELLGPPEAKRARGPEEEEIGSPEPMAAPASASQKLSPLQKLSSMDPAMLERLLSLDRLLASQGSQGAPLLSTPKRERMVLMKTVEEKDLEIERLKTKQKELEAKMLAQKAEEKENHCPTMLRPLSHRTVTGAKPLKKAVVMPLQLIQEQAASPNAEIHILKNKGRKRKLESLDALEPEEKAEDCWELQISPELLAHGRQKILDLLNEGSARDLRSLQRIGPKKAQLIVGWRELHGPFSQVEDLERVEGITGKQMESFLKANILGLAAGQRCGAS
Test: pull-down; GST or GST-Kid (2 μg) on glutathione beads with 2 μg purified His-NuSAP; 50 mM Tris-HCl pH 7.0, 150 mM NaCl, 1 mM EGTA, 0.5% Triton X-100; 3 h at 4 °C; NuSAP blotted with anti-NuSAP antibody
Details: both partners purified

B1: His-tagged NuSAP recombinant protein (natural protein, human (cDNA library from HEK 293T cells), UniProt Q9BXS6 1-441, looked up)
chain: MIIPSLEELDSLKYSDLQNLAKSLGLRANLRATKLLKALKGYIKHEARKGNENQDESQTSASSCDETEIQISNQEEAERQPLGHVTKTRRRCKTVRVDPDSQQNHSEIKISNPTEFQNHEKQESQDLRATAKVPSPPDEHQEAENAVSSGNRDSKVPSEGKKSLYTDESSKPGKNKRTAITTPNFKKLHEAHFKEMESIDQYIERKKKHFEEHNSMNELKQQPINKGGVRTPVPPRGRLSVASTPISQRRSQGRSCGPASQSTLGLKGSLKRSAISAAKTGVRFSAATKDNEHKRSLTKTPARKSAHVTVSGGTPKGEAVLGTHKLKTITGNSAAVITPFKLTTEATQTPVSNKKPVFDLKASLSRPLNYEPHKGKLKPWGQSKENNYLNQHVNRINFYKKTYKQPHLQTKEEQRKKREQERKEKKAKVLGMRRGLILAED
notes: NuSAP; cDNA amplified from a cDNA library extracted from HEK 293T cells, inserted into pET28b; Vector pET28b; also called His-NuSAP; source: E. coli BL21 (DE3) pLysS, purified (Ni-NTA agarose)
binding result: binds

Reference: paper PMC4742958, “NuSAP governs chromosome oscillation by facilitating the Kid-generated polar ejection force” (Nature Communications, 2016)
